Tests used:
GFP-Sec13 = GFP-Sec13 (UniProt P55735); assay: co-immunoprecipitation and western blotting; conditions: parent: 0.8
GFP-tagged Sec23 [1] = target: GFP-tagged Sec23 (UniProt Q15436); assay: co-immunoprecipitation (anti-GFP beads) and western blotting, single blot quantified; conditions: HEK293 cells co-transfected; parent: 1
GFP-tagged Sec23 [2] = target: GFP-tagged Sec23 (UniProt Q15436); assay: co-immunoprecipitation (anti-GFP beads) and western blotting, mean of three experiments; conditions: HEK293 cells co-transfected; parent: est. 1.0; read off a plot
Sec23 = Sec23 (UniProt Q15436); assay: anti-GFP co-IP, anti-FLAG blot; conditions: reference: wild type; sites S527,S799

Chain of GFP-tagged Sec23 (Q15436 whole entry): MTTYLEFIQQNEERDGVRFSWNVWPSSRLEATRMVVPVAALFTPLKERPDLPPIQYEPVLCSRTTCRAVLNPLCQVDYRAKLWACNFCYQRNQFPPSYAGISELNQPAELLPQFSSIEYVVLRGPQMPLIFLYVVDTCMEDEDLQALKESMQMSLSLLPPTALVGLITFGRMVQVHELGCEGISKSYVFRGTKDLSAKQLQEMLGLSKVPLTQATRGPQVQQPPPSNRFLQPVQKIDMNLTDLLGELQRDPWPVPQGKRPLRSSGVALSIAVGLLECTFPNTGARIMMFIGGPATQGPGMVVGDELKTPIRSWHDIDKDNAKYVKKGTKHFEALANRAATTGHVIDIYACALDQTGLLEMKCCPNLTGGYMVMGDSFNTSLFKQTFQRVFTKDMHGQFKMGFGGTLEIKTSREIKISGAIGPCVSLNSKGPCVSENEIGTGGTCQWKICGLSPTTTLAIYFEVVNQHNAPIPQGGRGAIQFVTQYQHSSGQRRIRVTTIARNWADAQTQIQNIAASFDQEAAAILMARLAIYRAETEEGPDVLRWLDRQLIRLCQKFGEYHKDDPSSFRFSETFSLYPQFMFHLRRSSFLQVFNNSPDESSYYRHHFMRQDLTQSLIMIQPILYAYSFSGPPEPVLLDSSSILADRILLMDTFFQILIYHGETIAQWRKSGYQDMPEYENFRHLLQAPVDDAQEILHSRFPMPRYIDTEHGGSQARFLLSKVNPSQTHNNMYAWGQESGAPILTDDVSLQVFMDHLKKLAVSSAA
Chain of FLAG-tagged wild type (WT) Sec31 (from UniProt O94979) S527A; S799A; T1163A; T1165A (O94979 whole entry, stated change not applied): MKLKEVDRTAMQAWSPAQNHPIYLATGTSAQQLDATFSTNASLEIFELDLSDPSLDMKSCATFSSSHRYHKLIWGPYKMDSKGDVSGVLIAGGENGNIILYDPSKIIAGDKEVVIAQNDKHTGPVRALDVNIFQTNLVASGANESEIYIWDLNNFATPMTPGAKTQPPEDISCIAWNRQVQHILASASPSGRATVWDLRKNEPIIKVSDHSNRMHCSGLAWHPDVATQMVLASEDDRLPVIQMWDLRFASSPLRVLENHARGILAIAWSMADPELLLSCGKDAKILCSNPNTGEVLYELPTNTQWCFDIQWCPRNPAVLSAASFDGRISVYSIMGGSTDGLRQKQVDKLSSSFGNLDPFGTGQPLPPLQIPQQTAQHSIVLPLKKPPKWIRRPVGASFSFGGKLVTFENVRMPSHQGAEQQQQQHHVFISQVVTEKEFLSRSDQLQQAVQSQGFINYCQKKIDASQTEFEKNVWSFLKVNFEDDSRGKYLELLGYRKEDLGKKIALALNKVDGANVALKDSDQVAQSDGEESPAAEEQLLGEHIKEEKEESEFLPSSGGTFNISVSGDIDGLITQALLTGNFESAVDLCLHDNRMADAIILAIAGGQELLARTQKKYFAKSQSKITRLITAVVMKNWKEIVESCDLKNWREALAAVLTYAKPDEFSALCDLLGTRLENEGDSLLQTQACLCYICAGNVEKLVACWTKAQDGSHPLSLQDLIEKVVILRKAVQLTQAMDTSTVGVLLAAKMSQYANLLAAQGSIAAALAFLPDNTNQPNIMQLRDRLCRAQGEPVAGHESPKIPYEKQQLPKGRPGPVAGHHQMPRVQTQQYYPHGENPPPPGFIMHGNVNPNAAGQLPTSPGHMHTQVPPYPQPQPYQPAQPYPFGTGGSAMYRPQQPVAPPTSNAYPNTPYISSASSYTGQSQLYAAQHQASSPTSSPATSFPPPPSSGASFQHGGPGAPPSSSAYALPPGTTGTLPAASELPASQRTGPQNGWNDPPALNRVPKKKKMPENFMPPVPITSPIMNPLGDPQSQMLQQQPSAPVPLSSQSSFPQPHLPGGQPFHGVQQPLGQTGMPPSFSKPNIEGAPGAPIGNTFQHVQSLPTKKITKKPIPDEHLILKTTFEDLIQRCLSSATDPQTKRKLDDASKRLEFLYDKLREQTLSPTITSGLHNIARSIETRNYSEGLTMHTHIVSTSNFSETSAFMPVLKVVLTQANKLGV
Chain of FLAG-tagged wild type (WT) Sec31 (from UniProt O94979) W985A (O94979 whole entry, stated change not applied): as above
Chain of GFP-Sec13 (P55735 whole entry): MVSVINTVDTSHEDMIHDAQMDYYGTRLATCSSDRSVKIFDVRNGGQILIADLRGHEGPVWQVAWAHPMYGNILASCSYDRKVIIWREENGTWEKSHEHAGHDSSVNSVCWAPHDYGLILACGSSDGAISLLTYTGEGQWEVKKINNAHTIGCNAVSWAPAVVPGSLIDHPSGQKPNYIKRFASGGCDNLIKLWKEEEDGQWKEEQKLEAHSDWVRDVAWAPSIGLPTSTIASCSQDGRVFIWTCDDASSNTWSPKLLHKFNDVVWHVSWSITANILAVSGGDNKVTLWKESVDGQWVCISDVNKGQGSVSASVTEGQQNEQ
Chain of FLAG-tagged wild type (WT) Sec31 (from UniProt O94979) T1163A (O94979 whole entry, stated change not applied): as the sequence (O94979 whole entry, stated change not applied) above

| Substance | other: normalized ratio of co-IP'ed Sec31 (GFP-Sec13) | ratio to parent (GFP-tagged Sec23 [1]) | ratio to parent (GFP-tagged Sec23 [2]) | fold change (Sec23) |
| --- | --- | --- | --- | --- |
| FLAG-tagged wild type (WT) Sec31 (from UniProt O94979) S527A; S799A; T1163A; T1165A | 1.4 | 3.2 | 3.1 |  |
| FLAG-tagged wild type (WT) Sec31 (from UniProt O94979) T1163A | 1.1 |  |  |  |
| FLAG-tagged wild type (WT) Sec31 (from UniProt O94979) W985A |  | 0.3 | 0.33 |  |
| Sec31 (from UniProt O94979) S527A/S799A |  |  |  | stronger |

From article PMC3548793
